Results from patent US20220064644A1 (TAIPEI MEDICAL UNIVERSITY, published 2022).
Numbering of substitutions follows the chain as printed. Numbers in names are those of the source.

T1: GST-Q43-HTTEX1, P42858
T1 chain: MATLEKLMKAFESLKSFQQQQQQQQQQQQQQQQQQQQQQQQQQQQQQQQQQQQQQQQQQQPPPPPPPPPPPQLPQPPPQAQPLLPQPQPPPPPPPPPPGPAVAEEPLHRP

B1: wild-type PIAS1 (Homo sapiens protein inhibitor of activated STAT 1) (protein)
chain: MADSAELKQMVMSLRVSELQVLLGYAGRNKHGRKHELLTKALHLLKAGCSPAVQMKIKELYRRRFPQKIMTPADLSIPNVHSSPMPATLSPSTIPQLTYDGHPASSPLLPVSLLGPKHELELPHLTSALHPVHPDIKLQKLPFYDLLDELIKPTSLASDNSQRFRETCFAFALTPQQVQQISSSMDISGTKCDFTVQVQLRFCLSETSCPQEDHFPPNLCVKVNTKPCSLPGYLPPTKNGVEPKRPSRPINITSLVRLSTTVPNTIVVSWTAEIGRNYSMAVYLVKQLSSTVLLQRLRAKGIRNPDHSRALIKEKLTADPDSEIATTSLRVSLLCPLGKMRLTIPCRALTCSHLQCFDATLYIQMNEKKPTWVCPVCDKKAPYEHLIIDGLFMEILKYCTDCDEIQFKEDGTWAPMRSKKEVQEVSASYNGVDGCLSSTLEHQVASHHQSSNKNKKVEVIDLTIDSSSDEEEEEPSAKRTCPSLSPTSPLNNKGILSLPHQASPVSRTPSLPAVDTSYINTSLIQDYRHPFHMTPMPYDLQGLDFFPFLSGDNQHYNTSLLAAAAAAVSDDQDLLHSSRFFPYTSSQMFLDQLSAGGSTSLPTTNGSSSGSNSSLVSSNSLRESHSHTVTNRSSTDTASIFGIIPDIISLD
B2: PIAS1 gene variant 3 (PIAS1^S510G) (protein)
chain: B1 chain with S510G
B3: 6xHis-S/T rich region only of PIAS1 (other, human, UniProt O75925 480-651, looked up)
chain: TCPSLSPTSPLNNKGILSLPHQASPVSRTPSLPAVDTSYINTSLIQDYRHPFHMTPMPYDLQGLDFFPFLSGDNQHYNTSLLAAAAAAVSDDQDLLHSSRFFPYTSSQMFLDQLSAGGSTSLPTTNGSSSGSNSSLVSSNSLRESHSHTVTNRSSTDTASIFGIIPDIISLD
notes: domain: S/T rich region; Purified recombinant protein from BL21 cells; also called S/T only; S/T-only PIAS1; not shown: 6xHis tag from the pRSETA-6xHis vector

Legend:
[1] = biological target: ATXN3-28Q (normal ATXN3), P54252
ATXN3-28Q (normal ATXN3), P54252, sequence (P54252 whole entry, looked up, tested part not stated): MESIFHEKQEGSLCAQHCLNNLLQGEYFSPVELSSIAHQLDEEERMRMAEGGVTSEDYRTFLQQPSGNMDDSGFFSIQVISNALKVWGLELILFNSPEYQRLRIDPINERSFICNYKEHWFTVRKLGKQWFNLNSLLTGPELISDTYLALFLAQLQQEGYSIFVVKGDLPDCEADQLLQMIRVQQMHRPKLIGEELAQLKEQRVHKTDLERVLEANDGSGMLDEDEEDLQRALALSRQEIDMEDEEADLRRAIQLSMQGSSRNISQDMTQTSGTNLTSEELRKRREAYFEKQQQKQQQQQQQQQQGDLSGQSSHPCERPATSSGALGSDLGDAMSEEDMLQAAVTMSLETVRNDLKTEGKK

[2] = biological target: ATXN3-84Q (mutant ATXN3), P54252
ATXN3-84Q (mutant ATXN3), P54252, sequence (P54252 whole entry, looked up, change not shown, tested part not stated): as the sequence (P54252 whole entry, looked up, tested part not stated) above

GST-Q43-HTTEX1, P42858 = biological target: T1, GST-Q43-HTTEX1, P42858
GST protein = biological target: T2, GST protein (UniProt P08515 1-218 = GST); test: GST pull-down with purified recombinant proteins, Western blot
T2 construct: Negative control in the pull-down assays
T2 sequence (P08515 whole entry): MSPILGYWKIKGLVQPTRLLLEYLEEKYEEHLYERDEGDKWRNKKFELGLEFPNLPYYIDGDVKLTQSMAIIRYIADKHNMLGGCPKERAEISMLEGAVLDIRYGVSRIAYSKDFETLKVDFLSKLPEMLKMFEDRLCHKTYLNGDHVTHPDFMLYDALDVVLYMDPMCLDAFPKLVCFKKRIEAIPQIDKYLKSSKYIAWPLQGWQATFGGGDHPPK
Experimental: The indicated lysates (1 mg) were incubated with purified recombinant GST or GST-Q₂₅-HTTEX1 protein as indicated for 60 min at 4° C. to allow complex formation. GST served as a negative control. The protein complexes were analyzed by Western blotting. The amount of PIAS1-domain-deletion mutant was normalized to the corresponding bait (GST-Q₂₅-HTTEX1 protein). The data are presented as the mean±SEM (N=4). **p<0.001 and ****p<0.0001 by one-way ANOVA. (FIG. 12 (C)) Purified recombinant 6×His-S/T rich region only of PIAS1 was incubated with purified recombinant GST or GST-Q₂₅-HTTEX1 protein for 60 min at 4° C. GST served as a negative control. The protein complexes were analyzed by Western blotting. The red arrowhead and yellow arrowhead mark the GST-Q₂₅-HTTEX1 and GST proteins, respectively. The data shown here represent three independent experiments.
GST Pull-down Assay. Cell lysates were harvested using a nondenaturing lysis buffer (137 mM NaCl, 1% NP-40, 20 mM Tris pH 8.0, and 1 mM EDTA) containing a protease inhibitor cocktail and 1× phosphatase inhibitor cocktail (Roche) and subjected to rotation at 4° C. for 1 hr. […] The bound proteins were analyzed with SDS-PAGE and Western blotting. […]

Binder | in vitro SUMOylation assay (SUMO3 conjugation of ATXN3) [1] | in vitro SUMOylation assay (SUMO3 conjugation of ATXN3) [2] | in vitro SUMOylation of GST-Q43-HTTEX1 (Western blot shift) (GST-Q43-HTTEX1, P42858) | binding result (GST protein)
B1 | When PIAS1 and ATP (ATP is necessary for SUMOylation activation) participated the reaction process, formed ATXN3 SUMO conjugation (FIG. 6 (B)), both normal and mutant ATXN3 | When PIAS1 and ATP (ATP is necessary for SUMOylation activation) participated the reaction process, formed ATXN3 SUMO conjugation (FIG. 6 (B)), both normal and mutant ATXN3 | The addition of PIAS1^WT enhanced the SUMOylation of GST-Q43-HTTEX1 | –
B2 | – | – | Compared with PIAS1^WT, PIAS1^S510G induced a much lower level of SUMOylation of GST-Q43HTTEX1 | –
B3 | – | – | – | no binding
